Results from US20260265381A1 (Hoffmann-La Roche, published 2026).

Key:
[1] = target: T1, recombinant single-chain HLA-G monomer/human HLA-G β2M MHC class I complex (human); assay: SPR single cycle kinetics (Biacore T200, 25 C); antibody captured via Fc on CM3 chip, HLA-G complex as analyte
T1 construct: also called wt-HLA-G complex; wt-HLA-G antigen

[2] = target: T2, human HLA-G expressed on cells (JEG3 cells, natural; SKOV3 cells transfected with recombinant HLA-G) (human, UniProt P17693 25-338); assay: flow cytometry, cell binding on SKOV3 HLA-G cells
T2 construct: also called SKOV3 HLA-G

[3] = target: T2, human HLA-G expressed on cells (JEG3 …); assay: cell-based or functional assay
[4] = target: T2, human HLA-G expressed on cells (JEG3 …); assay: flow cytometry, cell binding on JEG3 cells
[5] = target: T2, human HLA-G expressed on cells (JEG3 …); assay: cell-based or functional assay; remark: listed apart in the source
[6] = target: T3, human CD3 expressed on cells (Jurkat NFAT reporter cells; human T cells isolated from PBMCs) (human, UniProt P07766 23-207); assay: flow cytometry on human T cells isolated from PBMCs; detection with Alexa Fluor 488 anti-human IgG
T3 construct: on cells it is part of the CD3/TCR complex; also called CD3 on Jurkat cells; CD3 expressed on T-cells
T3 sequence (P07766 23-207 limits assumed): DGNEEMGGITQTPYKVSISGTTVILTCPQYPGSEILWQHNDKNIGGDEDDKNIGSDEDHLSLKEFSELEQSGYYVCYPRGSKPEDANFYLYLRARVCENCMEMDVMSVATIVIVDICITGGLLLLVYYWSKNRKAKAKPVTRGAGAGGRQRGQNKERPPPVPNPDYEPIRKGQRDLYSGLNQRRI

B1: HLA-G-0090-VL-N31D (antibody, IgG1, V domains shown)
VH: QVQLQQSGPGLLKPSQTLSLTCAISGDSVSSNRAAWNWIRQSPSRGLEWLGRTYYRSKWYNDYAVSVQGRITLIPDTSKNQFSLRLNSVTPEDTAVYYCASVRAVAPFDYWGQGVLVTVSS
VL: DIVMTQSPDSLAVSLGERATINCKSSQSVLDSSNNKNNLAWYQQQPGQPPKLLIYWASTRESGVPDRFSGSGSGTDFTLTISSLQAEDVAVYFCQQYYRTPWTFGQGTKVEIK
notes: also called HLA-G-0090-N31D
Kd [1]: 20.2 nM | koff [1]: 0.00391 s⁻¹ | kon [1]: 194000 M⁻¹ s⁻¹ | t½ [1]: 2.96 min

B2: HLA-G-0090-VL-N31Q (antibody, IgG1, V domains shown)
VH: QVQLQQSGPGLLKPSQTLSLTCAISGDSVSSNRAAWNWIRQSPSRGLEWLGRTYYRSKWYNDYAVSVQGRITLIPDTSKNQFSLRLNSVTPEDTAVYYCASVRAVAPFDYWGQGVLVTVSS
VL: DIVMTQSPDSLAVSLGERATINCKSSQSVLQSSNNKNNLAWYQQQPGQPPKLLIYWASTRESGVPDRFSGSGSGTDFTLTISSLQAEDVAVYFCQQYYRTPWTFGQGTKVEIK
notes: also called HLA-G-0090-N31Q
Kd [1]: 2 nM | koff [1]: 0.00373 s⁻¹ | kon [1]: 1.91e+06 M⁻¹ s⁻¹ | t½ [1]: 3.1 min

B3: HLA-G-0090-VL-N31Y-N38Y (antibody, IgG1, V domains shown)
VH: QVQLQQSGPGLLKPSQTLSLTCAISGDSVSSNRAAWNWIRQSPSRGLEWLGRTYYRSKWYNDYAVSVQGRITLIPDTSKNQFSLRLNSVTPEDTAVYYCASVRAVAPFDYWGQGVLVTVSS
VL: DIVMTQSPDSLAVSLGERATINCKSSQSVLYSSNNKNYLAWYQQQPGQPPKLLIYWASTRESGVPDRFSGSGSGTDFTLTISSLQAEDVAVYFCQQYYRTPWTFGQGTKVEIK
notes: also called HLA-G-0090-VL-N31Y-N38Y-GL; HLA-G-0090-N31Y-N38Y
Kd [1]: 23.6 nM | t½ [1]: 0 min

B4: HLA-G-0090-VL-N31S (antibody, IgG1, V domains shown)
VH: QVQLQQSGPGLLKPSQTLSLTCAISGDSVSSNRAAWNWIRQSPSRGLEWLGRTYYRSKWYNDYAVSVQGRITLIPDTSKNQFSLRLNSVTPEDTAVYYCASVRAVAPFDYWGQGVLVTVSS
VL: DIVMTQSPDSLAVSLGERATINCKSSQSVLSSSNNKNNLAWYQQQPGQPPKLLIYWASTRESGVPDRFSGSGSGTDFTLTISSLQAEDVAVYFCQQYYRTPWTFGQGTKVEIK
notes: also called HLA-G-0090-N31S
Kd [1]: 2.4 nM | koff [1]: 0.000922 s⁻¹ | kon [1]: 383000 M⁻¹ s⁻¹ | t½ [1]: 12.5 min

B5: HLA-G-0090-VL-N31L (antibody, IgG1, V domains shown)
VH: QVQLQQSGPGLLKPSQTLSLTCAISGDSVSSNRAAWNWIRQSPSRGLEWLGRTYYRSKWYNDYAVSVQGRITLIPDTSKNQFSLRLNSVTPEDTAVYYCASVRAVAPFDYWGQGVLVTVSS
VL: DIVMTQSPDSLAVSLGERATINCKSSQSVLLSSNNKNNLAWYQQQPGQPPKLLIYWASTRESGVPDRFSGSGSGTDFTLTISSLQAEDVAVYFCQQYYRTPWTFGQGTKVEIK
notes: also called HLA-G-0090-N31L
Kd [1]: 1.7 nM | koff [1]: 0.00871 s⁻¹ | kon [1]: 5.28e+06 M⁻¹ s⁻¹ | t½ [1]: 1.33 min

B6: HLA-G-0090-VL-N31Y (antibody, IgG1, V domains shown)
VH: QVQLQQSGPGLLKPSQTLSLTCAISGDSVSSNRAAWNWIRQSPSRGLEWLGRTYYRSKWYNDYAVSVQGRITLIPDTSKNQFSLRLNSVTPEDTAVYYCASVRAVAPFDYWGQGVLVTVSS
VL: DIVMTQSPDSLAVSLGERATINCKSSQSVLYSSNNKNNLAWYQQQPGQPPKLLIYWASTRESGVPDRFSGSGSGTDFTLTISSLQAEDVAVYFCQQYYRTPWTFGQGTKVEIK
notes: also called HLA-G-0090-N31Y
Kd [1]: 2 nM | koff [1]: 0.00107 s⁻¹ | kon [1]: 549000 M⁻¹ s⁻¹ | t½ [1]: 10.8 min

B7: HLA-G-0090-VL-N31T (antibody, IgG1, V domains shown)
VH: QVQLQQSGPGLLKPSQTLSLTCAISGDSVSSNRAAWNWIRQSPSRGLEWLGRTYYRSKWYNDYAVSVQGRITLIPDTSKNQFSLRLNSVTPEDTAVYYCASVRAVAPFDYWGQGVLVTVSS
VL: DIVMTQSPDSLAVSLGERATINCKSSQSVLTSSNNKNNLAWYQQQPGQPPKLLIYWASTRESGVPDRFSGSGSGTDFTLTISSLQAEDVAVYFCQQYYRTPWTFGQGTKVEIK
notes: also called HLA-G-0090-N31T
Kd [1]: 2.3 nM | koff [1]: 0.000769 s⁻¹ | kon [1]: 342000 M⁻¹ s⁻¹ | t½ [1]: 15 min

B8: P1AF7977 (HLA-G-0090-VL-S32P/CD3 P035-093 (P035)) (bispecific antibody, human IgG1, kappa, L234A L235A)
light 1: EVQLLESGGGLVQPGGSLRLSCAASGFTFSSYAMNWVRQAPGKGLEWVSRIRSKYNNYATYYADSVKGRFTISRDDSKNTLYLQMNSLRAEDTAVYYCVRASNFPASYVSYFAYWGQGTLVTVSSASVAAPSVFIFPPSDEQLKSGTASVVCLLNNFYPREAKVQWKVDNALQSGNSQESVTEQDSKDSTYSLSSTLTLSKADYEKHKVYACEVTHQGLSSPVTKSFNRGEC
light 2: not shown
heavy 1: QVQLQQSGPGLLKPSQTLSLTCAISGDSVSSNRAAWNWIRQSPSRGLEWLGRTYYRSKWYNDYAVSVQGRITLIPDTSKNQFSLRLNSVTPEDTAVYYCASVRAVAPFDYWGQGVLVTVSSASTKGPSVFPLAPSSKSTSGGTAALGCLVEDYFPEPVTVSWNSGALTSGVHTFPAVLQSSGLYSLSSVVTVPSSSLGTQTYICNVNHKPSNTKVDEKVEPKSCDKTHTCPPCPAPEAAGGPSVFLFPPKPKDTLMISRTPEVTCVVVDVSHEDPEVKFNWYVDGVEVHNAKTKPREEQYNSTYRVVSVLTVLHQDWLNGKEYKCKVSNKALGAPIEKTISKAKGQPREPQVCTLPPSRDELTKNQVSLSCAVKGFYPSDIAVEWESNGQPENNYKTTPPVLDSDGSFFLVSKLTVDKSRWQQGNVFSCSVMHEALHNHYTQKSLSLSP
heavy 2: not shown
notes: 2+1 T cell bispecific: light chain 1 is the crossed VH(CD3)-CL chain, light chain 2 the HLA-G light chain (two copies, CLM-00046); also called HLA-G TCB
EC50 [2]: 1.5 nM | T cell mediated cytotoxicity induction EC50 (nM), JEG3 (Caspase 8 activation) [3]: 12 nM | T cell mediated cytotoxicity induction EC50 (nM), SKOV3 HLA-G (Caspase 8 activation) [3]: 1.4 nM | EC50 [4]: 0.42 nM | IFNgamma induction EC50 (nM), JEG3 [5]: 20 nM | IFNgamma induction EC50 (nM), SKOV3 HLA-G [5]: 30 nM | binding result [6]: binds

B9: P1AF7979 (HLA-G-0090-VL-S32P/CD3 V9) (bispecific antibody, human IgG1, kappa, L234A L235A)
light 1: EVQLVESGGGLVQPGGSLRLSCAASGYSFTGYTMNWVRQAPGKGLEWVALINPYKGVSTYNQKFKDRFTISVDKSKNTAYLQMNSLRAEDTAVYYCARSGYYGDSDWYFDVWGQGTLVTVSSASVAAPSVFIFPPSDEQLKSGTASVVCLLNNFYPREAKVQWKVDNALQSGNSQESVTEQDSKDSTYSLSSTLTLSKADYEKHKVYACEVTHQGLSSPVTKSFNRGEC
light 2: not shown
heavy 1: QVQLQQSGPGLLKPSQTLSLTCAISGDSVSSNRAAWNWIRQSPSRGLEWLGRTYYRSKWYNDYAVSVQGRITLIPDTSKNQFSLRLNSVTPEDTAVYYCASVRAVAPFDYWGQGVLVTVSSASTKGPSVFPLAPSSKSTSGGTAALGCLVEDYFPEPVTVSWNSGALTSGVHTFPAVLQSSGLYSLSSVVTVPSSSLGTQTYICNVNHKPSNTKVDEKVEPKSCDKTHTCPPCPAPEAAGGPSVFLFPPKPKDTLMISRTPEVTCVVVDVSHEDPEVKFNWYVDGVEVHNAKTKPREEQYNSTYRVVSVLTVLHQDWLNGKEYKCKVSNKALGAPIEKTISKAKGQPREPQVCTLPPSRDELTKNQVSLSCAVKGFYPSDIAVEWESNGQPENNYKTTPPVLDSDGSFFLVSKLTVDKSRWQQGNVFSCSVMHEALHNHYTQKSLSLSP
heavy 2: not shown
notes: as for B8
EC50 [2]: 0.58 nM | T cell mediated cytotoxicity induction EC50 (nM), JEG3 (Caspase 8 activation) [3]: 4.6 nM | T cell mediated cytotoxicity induction EC50 (nM), SKOV3 HLA-G (Caspase 8 activation) [3]: 1 nM | EC50 [4]: 0.36 nM | IFNgamma induction EC50 (nM), JEG3 [5]: 29 nM | IFNgamma induction EC50 (nM), SKOV3 HLA-G [5]: 16 nM | binding result [6]: binds

B10: P1AF7978 (HLA-G-0090-VL-S32P/CD3 Clone 22 (Cl22)) (bispecific antibody, human IgG1, kappa, L234A L235A)
light 1: EVQLLESGGGLVQPGGSLRLSCAASGFQFSSYAMNWVRQAPGKGLEWVSRIRSKYNNYATYYADSVKGRFTISRDDSKNTLYLQMNSLRAEDTAVYYCVRHTTFPSSYVSYYGYWGQGTLVTVSSASVAAPSVFIFPPSDEQLKSGTASVVCLLNNFYPREAKVQWKVDNALQSGNSQESVTEQDSKDSTYSLSSTLTLSKADYEKHKVYACEVTHQGLSSPVTKSFNRGEC
light 2: not shown
heavy 1: QVQLQQSGPGLLKPSQTLSLTCAISGDSVSSNRAAWNWIRQSPSRGLEWLGRTYYRSKWYNDYAVSVQGRITLIPDTSKNQFSLRLNSVTPEDTAVYYCASVRAVAPFDYWGQGVLVTVSSASTKGPSVFPLAPSSKSTSGGTAALGCLVEDYFPEPVTVSWNSGALTSGVHTFPAVLQSSGLYSLSSVVTVPSSSLGTQTYICNVNHKPSNTKVDEKVEPKSCDKTHTCPPCPAPEAAGGPSVFLFPPKPKDTLMISRTPEVTCVVVDVSHEDPEVKFNWYVDGVEVHNAKTKPREEQYNSTYRVVSVLTVLHQDWLNGKEYKCKVSNKALGAPIEKTISKAKGQPREPQVCTLPPSRDELTKNQVSLSCAVKGFYPSDIAVEWESNGQPENNYKTTPPVLDSDGSFFLVSKLTVDKSRWQQGNVFSCSVMHEALHNHYTQKSLSLSP
heavy 2: not shown
notes: 2+1 T cell bispecific: light chain 1 is the crossed VH(CD3)-CL chain, light chain 2 the HLA-G light chain (two copies, CLM-00046); also called HLA-G-0090-VL-S32P/CD3 Cl22; HLA-G TCB
EC50 [2]: 0.15 nM | T cell mediated cytotoxicity induction EC50 (nM), JEG3 (Caspase 8 activation) [3]: 2.6 nM | T cell mediated cytotoxicity induction EC50 (nM), SKOV3 HLA-G (Caspase 8 activation) [3]: 1.36 nM | EC50 [4]: 0.12 nM | IFNgamma induction EC50 (nM), JEG3 [5]: 2.2 nM | IFNgamma induction EC50 (nM), SKOV3 HLA-G [5]: 2.6 nM | binding result [6]: binds
